Publication doi:10.1101/2025.06.24.661301, “Homodimerized Arpins: Binding to Arp2/3 Complexes with Positive Synergy to Inhibit Lamellipodia-Dependent Tumor Metastasis” (bioRxiv, 2025)
No end group written: not given here.

Biological target: Arp2/3 complex (human, UniProt P61158 1-418; P61160 1-394; O15143 1-372)
Assay: SPR; Biacore 8K, 25°C, PBS with 0.05% Tween-20; Arp2/3 immobilised on CM5 chip; analytes injected at 30 μL/min, 60 s association, 60 s dissociation; Arpin^FM 3.125-200 μM, ArpinCT, GST-aCT and D-aCT 0.625-40 μM, AI-designed variants 0.156-10 μM
Conditions: both partners purified

B1: D-aCT (dual-tailed peptide of two Arpin CTs linked at their N-termini by BM(PEG)3) (peptide)
chain: CSSGGSSGGSSGGSSGGGASWTDNIMAQKSSKGAAAEIREQGDGAEDEEWDD
modifications: not fully specified (residue 1); also: dimer: N-terminal Cys linked to N-terminal Cys of second chain by BM(PEG)3
In the case of B1, the Kd is reported as 5.5 µM.
